The values below come from publication PMC12628392, “Reengineered Anti-CD4 Cys-diabody Variants for ^89Zr-immunoPET of CD4^+ T Cells in Immunocompetent Mice” (Molecular Imaging and Biology, 2025).

One assay addresses T1, recombinant mouse CD4 (Mus musculus, strain , UniProt P06332).
T1 construct: CD4, mouse, recombinant; the supplementary information may tell source and limits; also called immobilized CD4 antigen; soluble murine CD4
In words: ELISA; saturation binding curves on immobilized recombinant mouse CD4; half-maximal binding (EC50), apparent affinity. To be noted: both partners purified. (ELISA stands for enzyme-linked immunosorbent assay.)

A further assay has as its target DFO-GK1.5 FR cDb (rat). Kind of assay: SEC; DFO-conjugated cDbs (inter-chain disulfide broken) compared with unconjugated cDbs; single peaks. (SEC sorts molecules by how far they enter the pores of the column.)
The target in assay [1] is mouse CD4 on splenocytes / CD4+ T cells (mouse (endogenous in splenocytes)) (UniProt P06332).
mouse CD4 on splenocytes / CD4+ T cells (mouse (endogenous in splenocytes)), sequence (P06332 27-457): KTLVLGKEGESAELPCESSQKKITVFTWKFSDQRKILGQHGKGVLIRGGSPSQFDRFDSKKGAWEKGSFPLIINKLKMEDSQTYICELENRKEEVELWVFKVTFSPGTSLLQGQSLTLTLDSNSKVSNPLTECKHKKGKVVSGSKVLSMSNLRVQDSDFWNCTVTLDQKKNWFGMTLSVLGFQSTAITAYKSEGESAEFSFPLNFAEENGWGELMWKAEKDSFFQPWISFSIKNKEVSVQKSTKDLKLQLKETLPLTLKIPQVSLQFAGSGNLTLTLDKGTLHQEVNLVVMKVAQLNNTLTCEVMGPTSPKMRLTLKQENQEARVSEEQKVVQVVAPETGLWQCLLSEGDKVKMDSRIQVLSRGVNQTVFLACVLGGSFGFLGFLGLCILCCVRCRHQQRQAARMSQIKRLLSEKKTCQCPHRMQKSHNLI
For the next assay, the target named is DFO-GK1.5 N80D cDb (rat). In words: SEC; DFO-conjugated cDbs (inter-chain disulfide broken) compared with unconjugated cDbs; single peaks.
A further assay concerns the target T2, BSA (Bos taurus, UniProt P02769).
T2 construct: serum albumin, printed only as BSA; also called control (BSA)
Kind of assay: ELISA; control: BSA instead of CD4; data not shown. The conditions noted are these: both partners purified.

Assay [2] has as its target mouse CD4 on splenocytes / CD4+ T cells (mouse (endogenous in splenocytes)) (UniProt P06332). The source holds these as a separate data set.

T1 sequence (P06332 27-457): as above
T2 sequence (P02769 25-607): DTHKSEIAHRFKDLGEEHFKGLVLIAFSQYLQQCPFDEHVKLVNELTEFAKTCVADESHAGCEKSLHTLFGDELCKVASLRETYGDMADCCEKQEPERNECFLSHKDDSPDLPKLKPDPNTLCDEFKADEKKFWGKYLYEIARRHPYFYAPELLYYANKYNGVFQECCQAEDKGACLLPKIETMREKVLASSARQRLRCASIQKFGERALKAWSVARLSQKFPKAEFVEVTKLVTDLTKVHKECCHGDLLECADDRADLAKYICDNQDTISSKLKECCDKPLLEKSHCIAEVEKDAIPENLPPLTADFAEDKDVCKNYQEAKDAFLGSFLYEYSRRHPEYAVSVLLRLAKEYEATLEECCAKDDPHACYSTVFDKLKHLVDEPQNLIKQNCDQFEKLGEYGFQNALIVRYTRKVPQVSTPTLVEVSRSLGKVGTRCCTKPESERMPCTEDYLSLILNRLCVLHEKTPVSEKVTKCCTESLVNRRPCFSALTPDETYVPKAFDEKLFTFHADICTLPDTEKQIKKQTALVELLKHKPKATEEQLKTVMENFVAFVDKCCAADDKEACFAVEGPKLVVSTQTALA

B1: Parental anti-mouse CD4 antibody GK1.5 (rat IgG2b,k) (antibody, V domains shown)
VH: EVQLQQSGAELGKPGTSVKLSCKVSDYNIRRTYMHWVNQRPGKGLEWIGRIDPANGNTIYGEKFKSKATLTADTSSNTAYMQLSQLKSDDTAFYYCAIGVQYLDYWGQGVMVTVSS
VL: DIVLTQSPASLAVSPGERVTISCRATESVSTLIHWFQQRPGQQPKLLIYLTSHLDSGVPARFSGSGSGTDFTLTIDPVEADDTATYYCQQTWNDPWTFGGGTKLELK
notes: VH of hybridoma GK1.5; constant region of rat IgG2b heavy chain; VL of hybridoma GK1.5; constant region of rat kappa light chain; rat IgG2b, kappa; also called GK1.5 IgG; parental full-length GK1.5 IgG; source: bought: BioLegend Cat# 100401; copies: 2 + 2
One may read the EC50 as the concentration at which the effect is half-maximal. B1: the EC50 with recombinant mouse CD4 is 2.25 nM.

B2: GK1.5 FR cDb (scFv, V domains shown)
VH: EVKLQESGGGLVQPGRSLKLSCAASGFNIRRTYMHWVRQAPGKGLEWIGRIDPANGNTIYGEKFKSKFTISRDNAQNTLYLQMSKLGSEDTAIYYCAIGVQYLDYWGQGVMVTVSS
VL: DIVLTQSPAMAMSPGERITISCRATESVSTLIHWYQQKPGQQPKLLIYLTSHLDSGVPARFSGSGSGTDFTLTIDPVEANDTATYYCQQTWNDPWTFGGGTKLELK
notes: as the VH of m1: CDRs of GK1.5 on the VH framework of YTS169; five amino acid linker, printed as G4S (VH-G4S-VL-Cys-His); C-terminal cysteine residue for site-specific conjugation, before the His6 tag; cys-diabody: covalent homodimer of the scFv; parent of m1; also called CDR-grafted cys-diabody; glycosylated GK1.5 FR cDb; source: production and purification told in the supplementary information
As usually defined, the stoichiometry N is a count of units in the complex or per binding partner. As for B2, the binding result with recombinant mouse CD4 is given as “binds”. This molecule also showed a stoichiometry N with DFO-GK1.5 FR cDb (rat) of 2. In assay [1], this molecule had an ex vivo biodistribution 22 h p.i. of ^89Zr-GK1.5 FR cDb (2 µg) in C57BL/6J mice: uptake in spleen of 20.7 %ID/g; an ex vivo biodistribution 22 h p.i. of ^89Zr-GK1.5 FR cDb: uptake in axillary, brachial lymph nodes of 10.5 %ID/g; an ex vivo biodistribution 22 h p.i. of ^89Zr-GK1.5 FR cDb: uptake in cervical lymph nodes of 16.7 %ID/g; an ex vivo biodistribution 22 h p.i. of ^89Zr-GK1.5 FR cDb: uptake in inguinal lymph nodes of 13 %ID/g.

B3: GK1.5 N80D cDb (scFv, V domains shown)
VH: EVKLQESGGGLVQPGRSLKLSCAASGFNIRRTYMHWVRQAPGKGLEWIGRIDPANGNTIYGEKFKSKFTISRDNAQNTLYLQMSKLGSEDTAIYYCAIGVQYLDYWGQGVMVTVSS
VL: DIVLTQSPAMAMSPGERITISCRATESVSTLIHWYQQKPGQQPKLLIYLTSHLDSGVPARFSGSGSGTDFTLTIDPVEADDTATYYCQQTWNDPWTFGGGTKLELK
notes: VH: CDRs of GK1.5 (contact definition) on the VH framework of YTS169; five amino acid linker, printed as G4S (VH-G4S-VL-Cys-His); VL of GK1.5 FR cDb (CDRs of GK1.5 on the VL framework of YTS169) with N80D (L81 in Kabat numbering); C-terminal cysteine residue for site-specific conjugation, before the His6 tag; cys-diabody: covalent homodimer of the scFv (MW 52.2 kDa), inter-chain disulfide between …
With B3, the EC50 in the assay with recombinant mouse CD4 was determined as 3 nM. The molecule further returned a stoichiometry N with DFO-GK1.5 N80D cDb (rat) of 2. Besides, in assay [1], the ex vivo biodistribution 22 h p.i. of ^89Zr-GK1.5 N80D cDb (2 µg) in C57BL/6J mice: uptake in spleen was found to be 48.5 %ID/g; the ex vivo biodistribution 22 h p.i. of ^89Zr-GK1.5 N80D cDb, blocked by co-injection of 60 µg (3 mg/kg) non-radioactive GK1.5 N80D cDb: uptake in spleen is 9.7 %ID/g; the ex vivo biodistribution 22 h p.i. of ^89Zr-GK1.5 N80D cDb, blocked by co-injection of non-radioactive GK1.5 N80D cDb: uptake in axillary, brachial lymph nodes turned out to be 16.6 %ID/g; the ex vivo biodistribution 22 h p.i. of ^89Zr-GK1.5 N80D cDb, blocked by co-injection of non-radioactive GK1.5 N80D cDb: uptake in cervical lymph nodes was 20 %ID/g. In addition, in assay [1], the ex vivo biodistribution 22 h p.i. of ^89Zr-GK1.5 N80D cDb, blocked by co-injection of non-radioactive GK1.5 N80D cDb: uptake in inguinal lymph nodes was 18.3 %ID/g; the ex vivo biodistribution 22 h p.i. of ^89Zr-GK1.5 N80D cDb: uptake in axillary, brachial lymph nodes is 43.5 %ID/g; the ex vivo biodistribution 22 h p.i. of ^89Zr-GK1.5 N80D cDb: uptake in cervical lymph nodes is 66.2 %ID/g; the ex vivo biodistribution 22 h p.i. of ^89Zr-GK1.5 N80D cDb: uptake in inguinal lymph nodes came out at 44.3 %ID/g. For the same molecule, in the assay with BSA, the binding result is reported as “no binding”. Also, the ex vivo biodistribution 22 h p.i. of ^89Zr-GK1.5 N80D cDb, blocked by co-injection of non-radioactive GK1.5 N80D cDb: uptake in spleen (value of the text, differs from Table 2) in assay [2] was 8.1 %ID/g.
